Source: publication PMC4014440

Target: FLAG epitope tagged DLK-1 K162R (FLAG::DLK-1L K162R) (C. elegans)
Assay: co-IP; FLAG::DLK-1 K162R immunoprecipitated from 5 mg of transgenic whole worm lysate (0.1% NP-40 lysis buffer); wild-type or mutant PPM-2::GFP detected by anti-GFP immunoblot; bands quantified with Image J as ratio of PPM-2::GFP in coIP to FLAG::DLK-1 K162R immunoprecipitated

ratio of PPM-2::GFP in coIP to FLAG::DLK-1 K162R immunoprecipitated	Binder
1.5	PPM-2::GFP R185A (phosphatase trapping mutant of PPM-2) (enzyme) MGQTLSEPVTKKESASCANENYLVGSSCMQGWRVDMEDAHTHLLSLPDDPKCAFFAVYDGHGGSKVSQYSGINLHKKVVAQKEFSEGNMKEAIEKGFLELDQQMRVDEETKDDVSGTTAVVVLIKEGDVYCGNAGDSRAVSSVVGEARPLSFDHKPSHETEARRIIAAGGWVEFNRVNGNLALSAALGDFAFKNCDTKPAEEQIVTAFPDVITDKLTPDHEFIVLACDGIWDVMTNQEVVDFVREKLAEKRDPQSICEELLTRCLAPDCQMGGLGCDNMTVVLVGLLHGQSPDTLFTKCARPAVFTGVNNEDGDQNQIQQDISRVINNFDGEQRVNAANQEEEEDDNEPAPANFQV
0.4	PPM-2::GFP (GFP fusion protein of wild-type PPM-2) (enzyme) MGQTLSEPVTKKESASCANENYLVGSSCMQGWRVDMEDAHTHLLSLPDDPKCAFFAVYDGHGGSKVSQYSGINLHKKVVAQKEFSEGNMKEAIEKGFLELDQQMRVDEETKDDVSGTTAVVVLIKEGDVYCGNAGDSRAVSSVVGEARPLSFDHKPSHETEARRIIAAGGWVEFNRVNGNLALSRALGDFAFKNCDTKPAEEQIVTAFPDVITDKLTPDHEFIVLACDGIWDVMTNQEVVDFVREKLAEKRDPQSICEELLTRCLAPDCQMGGLGCDNMTVVLVGLLHGQSPDTLFTKCARPAVFTGVNNEDGDQNQIQQDISRVINNFDGEQRVNAANQEEEEDDNEPAPANFQV
